Tested on: non-obese diabetic mice (NOD/ShiLtJ) colonized with E. coli VT-55
Type: in vivo
Conditions: NOD mice gavaged with E. coli VT-55; regimen of each agent as in Table 3; positive control (no therapy) 16, negative controls 24 and 26
Method: For this study non-obese diabetic mice (NOD/ShiLtJ) 8 weeks old (Jackson Laboratory, Bar Harbor, Me., USA) were housed and bred under specific pathogen-free conditions. Mice were maintained in a temperature controlled (22±2° C.) animal facility with a 12 hour light/dark cycle and were allowed free access to food and acidified drinking water. To increase the efficacy of E. coli transfer, all animals were exposed to antibiotic treatment before the transfer of E. coli. Starting at three weeks of age, recipient mice were treated with ampicillin (1 g/L) in the drinking water for the next 4 weeks. The bacterial strains used: E. coli strain VT-55—a wild-type, amyloid-producing strain. E. coli VT-55 bacteria were administered with oropharyngeal gavage to 8 week old female mice at 10^8 CFU, 2 times a week. Acceleration of T1D development was accessed by measuring blood glucose in a manner consistent with diabetes monitoring, using a FreeStyle Lite meter and test strips (Abbott). Blood glucose was evaluated weekly via a tail vein. T1D development was defined as occurring after two consecutive blood glucose measurements of at least 250 mg/dL.
TTR was expressed in E. coli VT-243. The TTR protein was precipitated from the supernatant of a 48 hour culture of E. coli VT-243 after centrifugation (12,000×g, 20 minutes 4° C.) of the lysed cells in the gradient 40-90% ammonium sulfate fraction (1.8-3.6 M). The precipitate that contained TTR was dialyzed overnight against 10 mM sodium phosphate buffer, pH 7.5, 100 mM KCl, 1 mM EDTA. The same volume of 200 mM sodium acetate buffer (pH 4.4, 100 mM KCl, 1 mM EDTA) was added to achieve a final pH of 4.5, and the mixture was then incubated for 18 hours at 37° C. Following centrifugation (45 min, 30,000×g, 4° C.), the supernatant was gel filtrated (Superdex 75) to elute phosphate buffer.
To develop nanoparticles with siRNA, we used cholesterol, distearoyl-sn-glycerol-3-phosphocholine (DSPC) and PEG2000-DMG (all Sigma). Nanoparticles were prepared by dissolving the 306013 lipidoid, cholesterol, DSPC, and PEG2000-DMG with final molar ratio of 50:38.5:10:1.5 in a 90% ethanol enriched with 10% 10 nM sodium citrate. Particles were formed following vortexing of equal volumes of siRNA solution with the lipid solution and subsequent dilution in PBS. Mice were orally gavaged with nanoparticles loaded with siRNA at a dose of 5 mg/kg.
The EcVac vaccine consisted of conjugates containing the 0-antigens of serotypes 06 of E. coli VT-55. […] The suspension for iv administration was made in TBS, (pH 7.4; 25 mmol Tris, 137 mmol NaCl, 2.8 mmol KCl).
Balb/c mice were immunized (10 μg) intraperitoneally and boosted (1 μg) subcutaneously with the E. coli amyloid isolated as previously described. Splenocytes were removed under sterile conditions, washed and hybridized to murine plasmacytoma parent cell line SP2/OAg14 using 40% polyethylene glycol and a spleen cell to plasmacytoma cell ratio of 5:1. Cells were plated in 96-well microtiter (Sarstedt) plates at 100,000 cells/per well with DMEM supplemented with 10% fetal bovine serum. Following 48h, cells were supplemented with hypoxanthine (100 PM) containing medium. After three washes with PBS-1% BSA, the presence of specific antibody binding was detected by ELISA. Serotype specific wells were cloned. Pristine-primed BALB/c mice were IP injected with 1×10^7 hybridoma cells. Ascites fluid was collected 14 days later, centrifuged (5000 g, 20 min, Eppendorf) and stored at −80° C. before use.

B1: T7 Endonuclease I: T7 Endonuclease I (New England Biolabs) (protein, UniProt P00641 1-149, looked up)
Endonuclease I: MAGYGAKGIRKVGAFRSGLEDKVSKQLESKGIKFEYEEWKVPYVIPASNHTYTPDFLLPNGIFVETKGLWESDDRKKHLLIREQHPELDIRIVFSSSRTKLYKGSPTSYGEFCEKHGIKFADKLIPAEWIKEPKKEVPFDRLKRKGGKK
Median T1D incidence 50% (weeks): 22 weeks

Reference: US11918610B2, “Methods for diagnosis and treatment of type 1 diabetes” (priority 2018, dated 2024)
